Results taken from patent publication US20230235304.
Positions count from the first letter of the chain named.

Legend:
Test in all cases: cell_activity
Conditions in all cases: PAM 5'-GCTG-3'; HEK293T; averaged over AAVS1, VEGFA, EMX1 targets
[1] = tested on: T1, CRISPR nuclease variant L580G,L385G L580G,L385G (synthetic construct)
T1 sequence: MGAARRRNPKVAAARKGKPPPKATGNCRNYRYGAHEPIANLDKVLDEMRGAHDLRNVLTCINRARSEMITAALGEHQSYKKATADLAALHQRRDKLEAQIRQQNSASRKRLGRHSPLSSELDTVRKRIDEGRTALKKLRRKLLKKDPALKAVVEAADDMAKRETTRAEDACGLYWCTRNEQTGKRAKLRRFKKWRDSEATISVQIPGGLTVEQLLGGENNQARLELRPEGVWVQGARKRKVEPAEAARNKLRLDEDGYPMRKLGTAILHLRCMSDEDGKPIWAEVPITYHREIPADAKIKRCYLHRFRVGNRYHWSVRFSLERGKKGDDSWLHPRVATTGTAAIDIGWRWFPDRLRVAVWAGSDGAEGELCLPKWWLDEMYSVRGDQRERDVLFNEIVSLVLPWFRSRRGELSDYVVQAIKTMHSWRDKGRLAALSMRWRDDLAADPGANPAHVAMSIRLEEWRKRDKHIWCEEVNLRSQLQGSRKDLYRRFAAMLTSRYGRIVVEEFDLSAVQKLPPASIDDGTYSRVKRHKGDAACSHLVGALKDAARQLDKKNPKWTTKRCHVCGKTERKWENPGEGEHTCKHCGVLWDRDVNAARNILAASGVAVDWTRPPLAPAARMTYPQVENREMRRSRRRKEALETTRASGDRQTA

[2] = tested on: T2, CRISPR nuclease variant Q514G Q514G (synthetic construct)
T2 sequence: T1 sequence with G385L, Q514G, G580L

[3] = tested on: T3, CRISPR nuclease variant D509R D509R (synthetic construct)
T3 sequence: T1 sequence with G385L, D509R, G580L

[4] = tested on: T4, CRISPR nuclease variant L580G,A512R L580G,A512R (synthetic construct)
T4 sequence: T1 sequence with G385L, A512R

Sequence: GGUCCCAUCGGAACGGGUUGUGGUUCCGACGGAGGGAUACAUUGGUGGGG / GGAGGGATACATTGGTGGGG / CCCCACCAATGTATCCCTCC [AAVS1 crRNA (Table 5) ; AAVS1 target (Table 5)]
- binding signal (fold indels vs WT) [1]: 3.9
- binding signal (fold indels vs WT) [2]: 3.53
- binding signal (fold indels vs WT) [3]: 3.91
- binding signal (fold indels vs WT) [4]: 3.75
